According to patent US20090074795A1, “Methods for addressing ocular diseases through interference with the wnt signaling pathway” (priority 2007, published 2009):
“Also recorded” adds a separate entry of the source.

Tested on: primary RCEC
Test: HIF-1 activation and VEGF expression induced by LiCl in primary RCEC
Assay type: cell-based, bovine
Conditions: 50 mM LiCl plus 85 ng/ml DKK1, 24 hours
Method: Blockade of the wnt pathway by DKK1 down-regulates VEGF and HIF-1 expression and reduces vascular leakage in the retina of diabetic rats. To activate the wnt pathway, primary RCEC were treated with 50 mM LiCl, a specific activator of the wnt pathway, in the presence or absence of 85 ng/ml DKK1, a specific inhibitor of the wnt pathway, or BSA for 24 hours. Hypoxia was used as a positive control for HIF-1 activation. The HIF-1 nuclear translocation, a key step in its activation, was measured by immunocytochemistry. Both LiCl and hypoxia increased nuclear levels of HIF-1α, indicating an increased nuclear translocation.
According to embodiments of experimental data, RCEC were exposed to normoxia (FIG. 17A), hypoxia (1% O2) (FIG. 17B), 50 mM LiCl with BSA (FIG. 17C), or 50 mM LiCl plus 85 ng/ml DKK1 (FIG. 17D) for 24 hours. The nuclear translocation of HIF-1α was determined by immunocytochemistry with an antibody against HIF-1α. […] In FIG. 17E, the total levels of VEGF and HIF-1α were determined by western blot analysis with an antibody against HIF-1α or VEGF.

B1: DKK1: Purified Dickkopf-1 protein (R&D System), specific inhibitor of the wnt pathway binding LRP5/6; mouse protein in mice, human in HUVEC (protein, UniProt O54908 32-272; O54908 32-272, looked up)
Dickkopf-related protein 1 1: TLNSVLINSNAIKNLPPPLGGAGGQPGSAVSVAPGVLYEGGNKYQTLDNYQPYPCAEDEECGSDEYCSSPSRGAAGVGGVQICLACRKRRKRCMRHAMCCPGNYCKNGICMPSDHSHFPRGEIEESIIENLGNDHNAAAGDGYPRRTTLTSKIYHTKGQEGSVCLRSSDCAAGLCCARHFWSKICKPVLKEGQVCTKHKRKGSHGLEIFQRCYCGEGLACRIQKDHHQASNSSRLHTCQRH
Dickkopf-related protein 1 2: TLNSVLINSNAIKNLPPPLGGAGGQPGSAVSVAPGVLYEGGNKYQTLDNYQPYPCAEDEECGSDEYCSSPSRGAAGVGGVQICLACRKRRKRCMRHAMCCPGNYCKNGICMPSDHSHFPRGEIEESIIENLGNDHNAAAGDGYPRRTTLTSKIYHTKGQEGSVCLRSSDCAAGLCCARHFWSKICKPVLKEGQVCTKHKRKGSHGLEIFQRCYCGEGLACRIQKDHHQASNSSRLHTCQRH
modifications: mouse protein in mice, human in HUVEC
HIF-1 nuclear translocation induced by LiCl (immunocytochemistry): inhibited the HIF-1 nuclear translocation; also recorded: blocked | HIF-1α over-expression induced by activation of the wnt pathway (western blot): blocked | VEGF over-expression induced by activation of the wnt pathway (western blot): blocked
